Data: patent publication US20230265179A1 (TWIST BIOSCIENCE, published 2023)
Residue numbers refer to the chain shown, from its start. Each block holds one binder with its values, some of them ahead of it.

Target: T1, CD40L (UniProt P29965 1-261, limits assumed)
T1 construct: whole, on cells; also called cytokine over-expressing Expi293 cells (CD40L)
T1 sequence (looked up): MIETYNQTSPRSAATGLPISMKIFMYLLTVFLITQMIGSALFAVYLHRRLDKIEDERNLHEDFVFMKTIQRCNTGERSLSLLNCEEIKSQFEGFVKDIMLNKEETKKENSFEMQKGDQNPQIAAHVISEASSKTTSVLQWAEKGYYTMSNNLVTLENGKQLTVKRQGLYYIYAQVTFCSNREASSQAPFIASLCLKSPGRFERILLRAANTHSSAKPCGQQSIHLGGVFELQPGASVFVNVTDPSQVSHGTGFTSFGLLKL
Experiment: flow cytometry, 100 nM IgG, CD40L over-expressing Expi293 cells over parent Expi293 cells
Method: All incubations and washes were in buffer containing PBS+1% BSA. MFI Ratio is defined by the mean fluorescence intensity (MFI) of the cytokine over-expressing Expi293 cell over the Expi293 parent cell. […] EC50 was calculated in GraphPad Prism.

B1: CD40L-362 (antibody, V domains shown)
VH: EVQLLESGGGLVQPGGSLRLSCAASGFTFTSYAMSWVRQAPGKGLEWVSGISGSGINTYYADSVKGRFTISRDNSRNTLYLQMNSLRAEDTAVYYCVRSSWSDVWGQGTLVTVSS
VL: DIQMTQSPSSLSASVGDRVTITCRASQNIINYLNWYQQKPGKAPKLLIYGASTLESGVPSRFSGSGSGTDFTLTISSLQPEDFATYYCQQSYSVPLTFGGGTKVEIK
100 nM FACS (MFI Ratio): 1060 MFI ratio

B3: CD40L-380 (antibody, V domains shown)
VH: EVQLLESGGGLVQPGGSLRLSCAASGFGFSSYAMSWVRQAPGKGLEWVSAISGGGGSIYYADSVKGRFTISRDNSKNTLYLQMNSLRAEDTAVYYCARAHDYDSMLMDYWGQGTLVTVSS
VL: B1 VL with N28S, I29V, I30S, N31R, Y32F, G50A, E55Q, S56P, S93E, V94T
100 nM FACS (MFI Ratio): 8.4 MFI ratio

B4: CD40L-382 (antibody, V domains shown)
VH: EVQLLESGGGLVQPGGSLRLSCAASGFGFSSYAMSWVRQAPGKGLEWVSAISGGGGSIYYADSVKGRFTISRDNSKNTLYLQMNSLRAEDTAVYYCATDYGDYDRLNFDLWGQGTLVTVSS
VL: B1 VL with N28S, I30G, N31T, Y32F, A51T, T53N, E55Q, S91G, S93R, V94T
100 nM FACS (MFI Ratio): 10.7 MFI ratio

B8: CD40L-376 (antibody, V domains shown)
VH: B3 VH with G28T, G53A, G54S, S57T, I58T, A99S, S104R, M105Q, L106T, M107F
VL: B1 VL with N28S, I30S, N31T, Y32F, N34S, G50A, A51T, V94T
100 nM FACS (MFI Ratio): 13.5 MFI ratio

B9: CD40L-365 (antibody, V domains shown)
VH: EVQLLESGGGLVQPGGSLRLSCAASGFTFSYYAMTWVRQAPGKGLEWVSGISGSGGSSYYADSVKGRFTISRDNSKNTLYLQMNSLRAEDTAVYYCARSHDYDRQTFDYWGQGTLVTVSS
VL: B1 VL with N28S, I30A, N31T, N34H, G50S, S93R, V94P
100 nM FACS (MFI Ratio): 4.6 MFI ratio

B11: CD40L-366 (antibody, V domains shown)
VH: B3 VH with S52T, G54S, G56S, S57T, I58T
VL: B1 VL with N28S, I29V, I30S, N31R, Y32F, G50A, E55Q, S56P, S93E, V94T
100 nM FACS (MFI Ratio): 43 MFI ratio

B12: CD40L-398 (antibody, V domains shown)
VH: B3 VH with G28T, S31N, S52T, G54S, G56S, S57T, I58T
VL: B1 VL with S9F, I30L, N31T, E55R, S93R, V94L
100 nM FACS (MFI Ratio): 45.1 MFI ratio

B17: CD40L-364 (antibody, V domains shown)
VH: EVQLLESGGGLVQPGGSLRLSCAASGFTFSPYAMSWVRQAPGKGLEWVSSITGTGGSTYYADSVKGRFTISRDNSKNTLYLQMNSLRAEDTAVYYCARSWASEDFDWLPNFDFWGQGTLVTVSS
VL: DIQMTQSPSSLSASVGDRVTITCRVSQSISSYLHWYQQKPGKAPKLLIYAASSLQTGVPSRFSGSGSGTDFTLTISSLQPEDFATYYCQQSYTLPLTFGGGTKVEIK
100 nM FACS (MFI Ratio): 6.8 MFI ratio

Next, values leading:

100 nM FACS (MFI Ratio): 3.1 MFI ratio
B2: CD40L-403 (antibody, V domains shown)
VH: EVQLLESGGGLVQPGGSLRLSCAASGFTFRNYGMNWVRQAPGKGLEWVSSISGSGDYTYYADSVKGRFTISRDNSKNTLYLQMNSLRAEDTAVYYCARGLTYDILPRFDSWGQGTLVTVSS
VL: B1 VL with N28T, I30S, N31P, G50A, E55Q, S56A, G64S, V94L

100 nM FACS (MFI Ratio): 24.1 MFI ratio
B5: CD40L-383 (antibody, V domains shown)
VH: B3 VH with G28T, S31N, S52T, G54S, G56S, S57T, I58T
VL: B1 VL with N28Y, I30N, G50A, A51S, E55Q, S56R, Y92F, V94T, L96I

100 nM FACS (MFI Ratio): 11.2 MFI ratio
B6: CD40L-414 (antibody, V domains shown)
VH: B4 VH with G28T, S31N, S52T, G54S, G56S, S57T, I58T
VL: B1 VL with N28S, I30G, N31T, Y32F, A51T, T53N, E55Q, S91G, S93R, V94T

100 nM FACS (MFI Ratio): 1.7 MFI ratio
B7: CD40L-381 (antibody, V domains shown)
VH: EVQLLESGGGLVQPGGSLRLSCAASGFTFSSYDMNWVRQAPGKGLEWVAAISGSGGTTYYADSVKGRFTISRDNSKNTLYLQMNSLRAEDTAVYYCARGVYESMTGTYGYVDWFDPWGQGTLVTVSS
VL: B1 VL with N28S, I30P, N31T, G50A, S52A, T53N, E55Q, S93A, V94T, L96F

100 nM FACS (MFI Ratio): 3 MFI ratio
B10: CD40L-363 (antibody, V domains shown)
VH: EVQLLESGGGLVQPGGSLRLSCAASGFTFSDYDMSWVRQAPGKGLEWVSGISGSGATTYYADSVKGRFTISRDNSKNTLYLQMNSLRAEDTAVYYCARDSSGSYYYPLDYWGQGTLVTVSS
VL: B1 VL with A25T, N28S, I30S, N31S, L33A, T53R, S91T, V94T, L96W, E105G

100 nM FACS (MFI Ratio): 1.7 MFI ratio
B13: CD40L-373 (antibody, V domains shown)
VH: EVQLLESGGGLVQPGGSLRLSCAASGFTFRTYAMGWVRQAPGKGLEWVSAISGSGGIAYYADSVKGRFTISRDNSKNTLYLQMNSLRAEDTAVYYCARHYYYDSSDAFDIWGQGTLVTISS
VL: B17 VL with V25G, Y32F, H34N, S53K, Q55H, T56S, Q90H, T93S, L94T

100 nM FACS (MFI Ratio): 7.1 MFI ratio
B14: CD40L-404 (antibody, V domains shown)
VH: B13 VH
VL: B1 VL with N28T, I30S, N31Y, G50D, S52T, T53S, E55Q, S91T, V94L

100 nM FACS (MFI Ratio): 3.5 MFI ratio
B15: CD40L-371 (antibody, V domains shown)
VH: EVQLLESGGGLVQPGGSLRLSCAASGFTSNIYAMSWVRQAPGKGLEWVSAISGSGFSTYYADSVKGRFTISRDNSKNTLYLQMNSLRAEDTAVYYCAKLAQNYGDPDAFDIWGQGTLVTVSS
VL: DIQMTQSPSSLSASVGDRVTITCRASQSISKYLNWYQQKPGKAPKLLIYAATSLESGVPSRFSGSGSGTDFTLTISSLQPEDFATYYCQQSYSTPLFTFGGGTKVEIK

100 nM FACS (MFI Ratio): 3.4 MFI ratio
B16: CD40L-416 (antibody, V domains shown)
VH: EVQLLESGGGLVQPGGSLRLSCAASGFTFSNYAMSWVRQAPGKGLEWVSAISGSGHSTYYADSVKGRFTISRDNSKNTLYLQMNSLRAEDTAVYYCARGGGYYNPLLFDYWGQGTLVTVSS
VL: B15 VL with S28Y, K31T, T52S, S53T, S56T, T94I, L96P, F97V

100 nM FACS (MFI Ratio): 8.5 MFI ratio
B18: CD40L-372 (antibody, V domains shown)
VH: B3 VH with G28T, S30T, S35T, A50S, S52T, G53S, G54S, I58T
VL: B17 VL with V25A, S30R, H34N, A51T, Q55H, T56S, L78M, Y92F, T93S, L96P
